These results are taken from patent US12697350B2, “Methods and compositions for treating a premature termination codon-mediated disorder” (Tevard Biosciences, Inc., priority 2019, dated 2026).

The test system of this data set is EGFP-R96X-TGA reporter. Nature of the data set: 100 nt 5′ leader sequence library with ArgTCA suppressor tRNA #115, EGFP-R96X-TGA reporter, Flp-In-293 cells (FIGS. 28, 29, 32). The class given is cell-based, human. The source says: FIG. 27 is a schematic representation of the constructs used to test the impact of a 5′ leader sequence on the read-through of a premature termination codon (PTC) by a suppressor tRNA. Constructs contain (i) a 100 bp 5′ leader sequence derived from genomic DNA located upstream of tRNA genes that are highly expressed in HEK293 cells, (ii) a single copy of either the ArgTCA suppressor tRNA #115 (SEQ ID NO: 18) or the GlnTTA suppressor tRNA #163 (SEQ ID NO: 45), and (iii) an RNA polymerase III termination signal (“Term”).
FIG. 28 is a graph depicting the readthrough activity of the indicated ArgTCA suppressor tRNA expression constructs as measured by flow cytometry in Flp-In-293 cells at ~24 hours post transfection. […]
FIG. 29 is a graph depicting the readthrough activity of the indicated ArgTCA suppressor tRNA expression constructs as measured by flow cytometry in Flp-In-293 cells at ~24 hours post transfection. […]
The leader sequences in combination with the ArgTCA suppressor tRNA #115 (SEQ ID NO: 18) or the GlnTTA suppressor tRNA #163 (SEQ ID NO: 45) were tested for PTC readthrough activity by flow cytometry in cell lines co-transfected with an EGFP-R96X-TGA reporter (SEQ ID NO: 31) for ArgTCA constructs or an EGFP-Q69X-TAA reporter (SEQ ID NO: 175) for GlnTTA constructs.

B1: tRNA-Arg-TCT-2-1-TCA-SUP_no intron (nucleic acid)
chain: GGCTCCGTGGCGCAATGGATAGCGCATTGGACTTCAAATTCAAAGGTTCCGGGTTCGAGTCCCGGCGGAGTCG
modifications: chemistry not fully specified
Regarding B1, the “readthrough activity when combined with the identified leader sequences” value is on record as “showed high readthrough activity”.
